In US10501734B2, “Compositions and methods of use thereof for making polypeptides with many instances of nonstandard amino acids” (Yale University, priority 2014, dated 2019):
Where a chain is given by its changes, count along the chain named. Numbers in names are those of the source. Entries after “also recorded” stand apart in the source; their conditions may differ. Read-outs that look alike come from different tables or passages of the source.

B1: pAcFRS.1.t2: pAcFRS variant A167D, R257C, F261E, SEQ ID NO: 6 (protein)
chain: MDEFEMIKRNTSEIISEEELREVLKKDEKSALIGFEPSGKIHLGHYLQIKKMIDLQNAGFDIIILLADLHAYLNQKGELDEIRKIGDYNKKVFEAMGLKAKYVYGSEFQLDKDYTLNVYRLALKTTLKRARRSMELIAREDENPKVAEVIYPIMQVNGCHYRGVDVDVGGMEQRKIHMLARELLPKKVVCIHNPVLTGLDGEGKMSSSKGNFIAVDDSPEEIRAKIKKAYCPAGVVEGNPIMEIAKYFLEYPLTIKCPEKEGGDLTVNSYEELESLFKNKELHPMRLKNAVAEELIKILEPIRKRL
B2: pAcFRS.2: pAcFRS variant L65V, A167D, SEQ ID NO: 7 (protein)
chain: B1 chain with L65V, C257R, E261F
B3: pAzFRS.2: pAcFRS variant E107T, F108Y, Q109M, SEQ ID NO: 13 (protein)
chain: B1 chain with E107T, F108Y, Q109M, D167A, C257R, E261F
B4: pAzFRS.1: pAcFRS variant D158V, I159M, L162D, A167Y, SEQ ID NO: 10 (protein)
chain: B1 chain with G158V, C159M, R162D, D167Y, C257R, E261F

Assays:
GFP(3TAG) [1] = format: cell-based, E. coli; conditions: chromosomally integrated AARS
Procedure: (§1) Liquid cell cultures of strains harboring chromosomally integrated OTSs and GFP reporter plasmids were inoculated from frozen stocks and grown to confluence overnight. Cultures were then inoculated at 1:20 dilution in LBmin media supplemented with 30 μg/ml kanamycin. Strains were inoculated by addition of 1:20 confluent cell culture (grown overnight) and allowed to grow at 34° C. to an OD600 of 0.5-0.8 in a shaking plate incubator at 650 r.p.m (˜3 h). AARS expression was then induced by the addition of 0.2% arabinose, GFP expression was induced by the addition of 60 ng/ul anhydrotetracycline, and the appropriate nsAA was added to a concentration of 1 mM. Cells were incubated at 34° C. for an additional 16 h. Liquid cell cultures of strains harboring plasmid-based OTSs and GFP or ELP-GFP reporter plasmids were inoculated from frozen stocks and grown to confluence overnight. Cultures were then inoculated at 1:20 dilution in 2×YT media supplemented with 30 μg/ml kanamycin and 20 μg/ml chloramphenicol. […] Cells were allowed to grow at 34° C. to an OD600 of 0.5-0.8 in a shaking plate incubator at 650 r.p.m (˜3 h), reporter protein expression was then induced by the addition of 60 ng/ul anhydrotetracycline, and cells were incubated at 34° C. for an additional 16 h.
(§2) For 384 well plate-based assays, fluorescence and OD600 were directly measured following expression. For 96 well plate-based assays, cells were centrifuged at 4,000 g for 4 min. Supernatant medium was removed and cells were resuspended in PBS. This process was repeated twice with PBS. GFP fluorescence was measured on a Biotek spectrophotometric plate reader using excitation and emission wavelengths of 395 and 509 nm, respectively). Fluorescence signals were normalized by dividing the fluorescence counts by the OD600 reading. The nsAAs used in this study were purchased from Sigma-Aldrich (St. Louis, Mo.), Chemlmpex (Wood Dale, Ill.), and Bachem (Torrance, Calif.). Solutions of nsAAs (50 mM) were made in water or 50 mM NaOH; these stock solutions were diluted 50- or 100-fold (to 1 mM final concentration) into medium used for bacterial growth.

GFP(3TAG) [2] = experiment: nsAA library screening, GFP(3TAG) fluorescence in 384 well plates; format: cell-based, E. coli; conditions: GFP(3TAG) production in the presence of pAcF, pAzF and 236 other nsAAs
Procedure: as §1
as §2, with “growth. […]” for “growth.”

[3] = ATP-PPi exchange assay (amino acid activation); format: biochemical; conditions: for Fold change: relative to progenitor pAcFRS
Procedure: A 25 μl ATP-PPi exchange reaction contained the following components: 100 mM HEPES-KOH (pH 7.5), 30 mM KCl, 10 mM MgCl2, 2 mM DTT, 2 mM KF, 2 mM NaPPi, 5 mM ATP, […], 2 μCi/μl of […] (PerkinElmer) and varied concentrations of amino acids (0.25, 0.5, 1.25, 2.5, 5, 10, and 20 mM, respectively). The reactions were incubated at 37° C. Time points were taken at 2 minutes, 5 minutes and 10 minutes by plotting 1 μl aliquots from the reaction immediately to the PEI-cellulose plates (Merck). For each reaction, 1 μl of blank reaction mixture containing no enzymes was set as background. The reaction mixtures were separated on the plates in 1 M urea and 1 M monopotassium phosphate. The plates were then scanned in a Molecular Dynamics Storm 860 phosphorimager (Amersham Biosciences). The ratio of ATP to PPi was determined to monitor reaction progress. The kinetic constants were derived from plotting initial velocity of a series of reactions that contained varied concentrations of amino acids. The data were analyzed by GraFit 5.0 (Erithacus Software).

tRNA = experiment: Aminoacylation assay (tRNA charging); format: biochemical; conditions: for Fold change: relative to progenitor pAcFRS
Procedure: Template plasmid containing tRNA gene was purified with the plasmid maxi kit (Qiagen), and 100 μg of plasmid was digested with BstNI (New England Biolabs). The BstNI digested template DNA was purified by phenol chloroform extraction, followed by ethanol precipitation and resolved in double distilled water. A His-tagged T7 RNA polymerase was purified over column of Ni-NTA resin according to manufacturer's instructions (Qiagen). The transcription reaction [40 mM Tris (pH 8); 4 mM each of UTP, CTP, GTP, and ATP at pH 7.0; 22 mM MgCl2; 2 mM spermidine; 10 mM DTT; 6 μg pyrophosphatase (Roche Applied Science); 60 μg/mL BstNI digested DNA template, approximately 0.2 mg/ml T7 RNA polymerase] was performed in 10 ml reaction volumes for overnight at 37° C. The tRNA was purified on 12% denaturing polyacrylamide gel containing 8 M urea and TBE buffer (90 mM Tris, 90 mM boric acid, 2 mM EDTA). UV shadowing illuminates the pure tRNA band, which is excised and extracted three times with 1M sodium acetate pH 5.3 at 4° C. The tRNA extractions were then ethanol precipitated, dissolved in RNase-free distilled water, pooled, and finally desalted using a Biospin 30 column (BioRad). The ratio of aminoacylated tRNA to total tRNA was determined to monitor reaction progress.
The tRNA was refolded by heating to 100° C. for 5 min and slow cooling to room temperature. At 65° C., MgC12, was added to a final concentration of 10 mM to aid folding. A His-tagged CCA adding enzyme was purified over column of Ni-NTA resin according to manufacturer's instructions (Qiagen). 16 μM folded tRNA in 50 mM Tris (pH 8.0), 20 mM MgCl2, 5 mM DTT and 50 μM NaPPi was incubated at room temperature for 1 hour with approximately 0.2 mg/ml CCA-adding enzyme and 1.6 μCi/μl of [α-32P]-labeled ATP (PerkinElmer). The sample was phenol/chloroform extracted and then passed over a Bio-spin 30 column (Bio-Rad) to remove excess ATP.
A 20 μl aminoacylation reaction contained the following components: 50 mM HEPES-KOH (pH 7.2), 25 mM KCl, 10 mM MgCl2, 5 mM DTT, 10 mM ATP, 25 μg/ml pyrophosphatase (Roche Applied Science), 2 mM amino acids. All plateau tRNA aminoacylation levels were determined at 37° C. according to the reactions conditions described above with 500 nM enzyme, 5 μM unlabeled tRNA plus 100 nM 32P-labeled tRNA. Time points were taken at 5 minutes, 20 minutes and 60 minutes by removing 2 μl aliquots from the reaction and immediately quenching the reaction into an ice-cold 3 μl quench solution [0.66 μg/μl nuclease P1 (Sigma) in 100 mM sodium citrate (pH 5.0)]. For each reaction, 2 μl of blank reaction mixture containing no enzymes was added to the quench solution as the start time point. The nuclease P1 mixture was then incubated at room temperature for 30 min and 1 μl aliquots were spotted on PEI-cellulose plates (Merck) and developed in running buffer containing 5% acetic acid and 100 mM ammonium acetate. Radioactive spots for AMP and AA-AMP (representing free tRNA and aminoacyl-tRNA, respectively) were separated and then visualized and quantified by phosphor imaging by a Molecular Dynamics Storm 860 phosphorimager (Amersham Biosciences). The ratio of aminoacylated tRNA to total tRNA was determined to monitor reaction progress.

| Molecule | higher GFP(3TAG) production compared with the progenitor enzyme (GFP(3TAG) [1]; pAcF) [fold] | nsAA specificity (polyspecificity) (GFP(3TAG) [2]) | Km ([3]; nsAA pAcF) [µM] | kcat ([3]; nsAA pAcF) | Fold change ([3]; nsAA pAcF) | Km (tRNA; nsAA pAcF) [µM] | kcat (tRNA; nsAA pAcF) | Fold change (tRNA; nsAA pAcF) | selectivity toward pAcF over pAzF (GFP(3TAG) [1]; GFP(3TAG) expression) | Km ([3]; nsAA pAzF) [µM] | kcat ([3]; nsAA pAzF) | Fold change ([3]; nsAA pAzF) | Km (tRNA; nsAA pAzF) [µM] | kcat (tRNA; nsAA pAzF) | Fold change (tRNA; nsAA pAzF) | higher GFP(3TAG) production compared with the progenitor enzyme (GFP(3TAG) [1]; pAzF) [fold] |
| --- | --- | --- | --- | --- | --- | --- | --- | --- | --- | --- | --- | --- | --- | --- | --- | --- |
| B1 | ~15 | polyspecifity for at least pAcF, pAzF, StyA, 4IF, 4BrF, 4ClF, 4MeF, 4Cf3F, MeY, 4NO2F, 4BuF, BuY, 2NaA, PheF | 1690 ± 440 | 6.30 ± 0.46 ×10^−2 s^−1 | 5.47 | 27 ± 3 | 1.03 ± 0.06 ×10^−3 s^−1 | 5.22 |  |  |  |  |  |  |  |  |
| B2 |  | polyspecifity for at least pAcF, pAzF, StyA, 4IF, 4BrF, 4ClF, 4MeF, 4Cf3F, MeY, 4NO2F, 4BuF, BuY, 2NaA, PheF | 3130 ± 1730 | 5.28 ± 0.79 ×10^−2 s^−1 | 2.48 | 31 ± 7 | 0.58 ± 0.09 ×10^−3 s^−1 | 2.56 | increase in selectivity | 6400 ± 780 | 4.08 ± 0.20 ×10^−2 s^−1 | 0.44 | 33 ± 8 | 0.18 ± 0.02 ×10^−3 s^−1 | 0.88 |  |
| B3 |  | polyspecific for at least pAcF, pAzF, StyA, 4IF, 4BrF, 4ClF, 4MeF, 4Cf3F, MeY, 4NO2F, 4BuF, BuY, 2NaA, PheF |  |  |  |  |  |  |  | 1250 ± 110 | 4.13 ± 0.86 ×10^−2 s^−1 | 2.26 | 32 ± 11 | 0.73 ± 0.06 ×10^−3 s^−1 | 3.67 | ~12 |
| B4 |  | specific for pAzF; also recorded: exceptional specificity toward pAzF with almost complete exclusion of any other nsAA; also recorded: both more efficient and more specific for pAzF than previously reported pAzFRSs |  |  |  |  |  |  |  | 1180 ± 210 | 4.61 ± 0.18 ×10^−2 s^−1 | 2.68 | 38 ± 5 | 0.46 ± 0.18 ×10^−3 s^−1 | 1.48 | ~3.5 |
